Source: the supplement of paper PMC9112550, “Optimization of the antimicrobial peptide Bac7 by deep mutational scanning” (BMC Biology, 2022)
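Further: peptides expressed intracellularly from a pBAD plasmid library in pooled LB shake-flask culture, induced with 0.3% L-arabinose, DNA abundance read by NGS, three biological replicates, DESeq2 with apeglm shrinkage.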

The sequences below were run on Escherichia coli TOP10 (assay: shrunken log2 fold change of peptide-encoding DNA abundance (4.5 h post-induction vs induction); higher = less antimicrobial activity (less host growth inhibition)). Conditions: time post-induction: 4.5 h; library: site-saturation at positions 5, 18, 19, 20.
In the case of RRIRPRPPRLPRPRPRPVSNPRP, the “shrunken log2 fold change” value is reported as -0.622. In the case of RRIRQRPPRLPRPRPRPHDDPRP, the “shrunken log2 fold change” value is reported as 0.043. With RRIRVRPPRLPRPRPRPNQHPRP the “shrunken log2 fold change” value was -0.289. In the case of RRIRGRPPRLPRPRPRPWDFPRP, the “shrunken log2 fold change” value is reported as 0.328. RRIRVRPPRLPRPRPRPVMIPRP was tested, and the “shrunken log2 fold change” value was -0.183. In the case of RRIRMRPPRLPRPRPRPKICPRP, the “shrunken log2 fold change” value is reported as -0.155. With RRIRSRPPRLPRPRPRPYCEPRP the “shrunken log2 fold change” value was -0.352. In the case of RRIRCRPPRLPRPRPRPPWLPRP, the “shrunken log2 fold change” value is reported as 0.241. With RRIRSRPPRLPRPRPRPCDMPRP the “shrunken log2 fold change” value was -0.184. In the case of RRIRVRPPRLPRPRPRPPAMPRP, the “shrunken log2 fold change” value is reported as 0.246. With RRIRARPPRLPRPRPRPDKRPRP the “shrunken log2 fold change” value was 0.109. With RRIRYRPPRLPRPRPRPCEDPRP the “shrunken log2 fold change” value was -0.371. With RRIRERPPRLPRPRPRPNSHPRP the “shrunken log2 fold change” value was -0.8. RRIRTRPPRLPRPRPRPYRFPRP was tested, and the “shrunken log2 fold change” value was -0.0191. RRIRNRPPRLPRPRPRPAREPRP was tested, and the “shrunken log2 fold change” value was 0.191. In the case of RRIRRRPPRLPRPRPRPSYNPRP, the “shrunken log2 fold change” value is reported as -0.16. For RRIRMRPPRLPRPRPRPSANPRP, the “shrunken log2 fold change” value was 2.44. With RRIRDRPPRLPRPRPRPKTVPRP the “shrunken log2 fold change” value was 0.271. For RRIRPRPPRLPRPRPRPVKAPRP, the “shrunken log2 fold change” value was 0.216. For RRIRGRPPRLPRPRPRPHSIPRP, the “shrunken log2 fold change” value was 0.169. For RRIRHRPPRLPRPRPRPMCGPRP, the “shrunken log2 fold change” value was -0.181. In the case of RRIRKRPPRLPRPRPRPMSKPRP, the “shrunken log2 fold change” value is reported as 0.388. In the case of RRIRNRPPRLPRPRPRPECGPRP, the “shrunken log2 fold change” value is reported as 0.445. In the case of RRIRSRPPRLPRPRPRPREKPRP, the “shrunken log2 fold change” value is reported as 0.0145. In the case of RRIRFRPPRLPRPRPRPSRPPRP, the “shrunken log2 fold change” value is reported as 0.616. RRIRHRPPRLPRPRPRPSQTPRP was tested, and the “shrunken log2 fold change” value was 0.067. RRIRTRPPRLPRPRPRPPTVPRP was tested, and the “shrunken log2 fold change” value was 0.44. For RRIRDRPPRLPRPRPRPMFYPRP, the “shrunken log2 fold change” value was -0.305. For RRIRVRPPRLPRPRPRPADIPRP, the “shrunken log2 fold change” value was -0.235. RRIRRRPPRLPRPRPRPLHPPRP was tested, and the “shrunken log2 fold change” value was 0.437. With RRIRIRPPRLPRPRPRPMVNPRP the “shrunken log2 fold change” value was -0.294. With RRIRERPPRLPRPRPRPGGFPRP the “shrunken log2 fold change” value was 0.292. With RRIRARPPRLPRPRPRPLPYPRP the “shrunken log2 fold change” value was 0.0356. RRIRYRPPRLPRPRPRPRGCPRP was tested, and the “shrunken log2 fold change” value was -0.286. For RRIRLRPPRLPRPRPRPAPRPRP, the “shrunken log2 fold change” value was 0.816. With RRIRNRPPRLPRPRPRPFWLPRP the “shrunken log2 fold change” value was -0.189. With RRIRKRPPRLPRPRPRPTFRPRP the “shrunken log2 fold change” value was 0.527. RRIRHRPPRLPRPRPRPSSMPRP was tested, and the “shrunken log2 fold change” value was -0.474. For RRIRIRPPRLPRPRPRPLNCPRP, the “shrunken log2 fold change” value was -0.0654. For RRIRSRPPRLPRPRPRPNWCPRP, the “shrunken log2 fold change” value was 0.0144. RRIRDRPPRLPRPRPRPMKLPRP was tested, and the “shrunken log2 fold change” value was -0.0161. With RRIRQRPPRLPRPRPRPLPIPRP the “shrunken log2 fold change” value was 0.231. In the case of RRIRYRPPRLPRPRPRPPIKPRP, the “shrunken log2 fold change” value is reported as -0.518. RRIRPRPPRLPRPRPRPLNKPRP was tested, and the “shrunken log2 fold change” value was -0.55. For RRIRRRPPRLPRPRPRPMYPPRP, the “shrunken log2 fold change” value was -0.197. In the case of RRIRRRPPRLPRPRPRPYARPRP, the “shrunken log2 fold change” value is reported as 0.0203. In the case of RRIRPRPPRLPRPRPRPYNSPRP, the “shrunken log2 fold change” value is reported as -0.55. With RRIRCRPPRLPRPRPRPDEKPRP the “shrunken log2 fold change” value was 0.118. With RRIRCRPPRLPRPRPRPVLVPRP the “shrunken log2 fold change” value was -0.0168. RRIRGRPPRLPRPRPRPPPEPRP was tested, and the “shrunken log2 fold change” value was 2.01. RRIRMRPPRLPRPRPRPRWVPRP was tested, and the “shrunken log2 fold change” value was 0.4. RRIRDRPPRLPRPRPRPLKSPRP was tested, and the “shrunken log2 fold change” value was 0.00491. With RRIRGRPPRLPRPRPRPTQPPRP the “shrunken log2 fold change” value was 1.12. In the case of RRIRFRPPRLPRPRPRPSVEPRP, the “shrunken log2 fold change” value is reported as -0.18. With RRIRERPPRLPRPRPRPMPWPRP the “shrunken log2 fold change” value was 0.0819. With RRIRIRPPRLPRPRPRPGVCPRP the “shrunken log2 fold change” value was 0.0702. For RRIRKRPPRLPRPRPRPLANPRP, the “shrunken log2 fold change” value was 0.029. For RRIRWRPPRLPRPRPRPVSRPRP, the “shrunken log2 fold change” value was 0.616. For RRIRGRPPRLPRPRPRPPGCPRP, the “shrunken log2 fold change” value was 0.895. In the case of RRIRTRPPRLPRPRPRPVGTPRP, the “shrunken log2 fold change” value is reported as -0.201. For RRIRLRPPRLPRPRPRPIFVPRP, the “shrunken log2 fold change” value was -0.0836. With RRIRTRPPRLPRPRPRPNFMPRP the “shrunken log2 fold change” value was -0.401. For RRIRQRPPRLPRPRPRPINMPRP, the “shrunken log2 fold change” value was -0.28. In the case of RRIRARPPRLPRPRPRPYNMPRP, the “shrunken log2 fold change” value is reported as -0.809. For RRIRFRPPRLPRPRPRPFGMPRP, the “shrunken log2 fold change” value was -0.223. For RRIRWRPPRLPRPRPRPVTMPRP, the “shrunken log2 fold change” value was -0.0519. For RRIRVRPPRLPRPRPRPWQSPRP, the “shrunken log2 fold change” value was 0.0169. In the case of RRIRRRPPRLPRPRPRPPSPPRP, the “shrunken log2 fold change” value is reported as 0.875. For RRIRVRPPRLPRPRPRPMWDPRP, the “shrunken log2 fold change” value was -0.101. In the case of RRIRKRPPRLPRPRPRPAWPPRP, the “shrunken log2 fold change” value is reported as 0.675. In the case of RRIRLRPPRLPRPRPRPYEDPRP, the “shrunken log2 fold change” value is reported as -0.125. For RRIRPRPPRLPRPRPRPQLDPRP, the “shrunken log2 fold change” value was 0.314. In the case of RRIRHRPPRLPRPRPRPTKFPRP, the “shrunken log2 fold change” value is reported as -0.138. RRIRTRPPRLPRPRPRPSMYPRP was tested, and the “shrunken log2 fold change” value was -0.39. With RRIRHRPPRLPRPRPRPTVGPRP the “shrunken log2 fold change” value was 0.0689. In the case of RRIRRRPPRLPRPRPRPKMFPRP, the “shrunken log2 fold change” value is reported as -0.131. In the case of RRIRKRPPRLPRPRPRPEMRPRP, the “shrunken log2 fold change” value is reported as 0.105. RRIRWRPPRLPRPRPRPVTEPRP was tested, and the “shrunken log2 fold change” value was 0.361. With RRIRFRPPRLPRPRPRPWEPPRP the “shrunken log2 fold change” value was -0.373. In the case of RRIRDRPPRLPRPRPRPKDHPRP, the “shrunken log2 fold change” value is reported as 0.0158. For RRIRARPPRLPRPRPRPLCTPRP, the “shrunken log2 fold change” value was 0.223. With RRIRLRPPRLPRPRPRPQKWPRP the “shrunken log2 fold change” value was 2.37. For RRIRIRPPRLPRPRPRPSECPRP, the “shrunken log2 fold change” value was -0.00498. With RRIRERPPRLPRPRPRPGARPRP the “shrunken log2 fold change” value was 0.255. RRIRQRPPRLPRPRPRPTHGPRP was tested, and the “shrunken log2 fold change” value was 0.0759. RRIRGRPPRLPRPRPRPENPPRP was tested, and the “shrunken log2 fold change” value was 0.842. In the case of RRIRDRPPRLPRPRPRPCQVPRP, the “shrunken log2 fold change” value is reported as -0.0566. RRIRWRPPRLPRPRPRPNVCPRP was tested, and the “shrunken log2 fold change” value was 0.0917. In the case of RRIRIRPPRLPRPRPRPLDEPRP, the “shrunken log2 fold change” value is reported as -0.287. In the case of RRIRLRPPRLPRPRPRPWDAPRP, the “shrunken log2 fold change” value is reported as 0.135. For RRIRGRPPRLPRPRPRPVGSPRP, the “shrunken log2 fold change” value was 0.749. For RRIRLRPPRLPRPRPRPIHDPRP, the “shrunken log2 fold change” value was -0.302. For RRIRCRPPRLPRPRPRPYQCPRP, the “shrunken log2 fold change” value was -0.133. RRIRIRPPRLPRPRPRPSSTPRP was tested, and the “shrunken log2 fold change” value was -0.955. With RRIRKRPPRLPRPRPRPDPTPRP the “shrunken log2 fold change” value was 0.273. RRIRCRPPRLPRPRPRPAIEPRP was tested, and the “shrunken log2 fold change” value was -0.384. For RRIRSRPPRLPRPRPRPLKKPRP, the “shrunken log2 fold change” value was 0.0577. With RRIRARPPRLPRPRPRPWKDPRP the “shrunken log2 fold change” value was -0.0732. For RRIRIRPPRLPRPRPRPKPPPRP, the “shrunken log2 fold change” value was 0.269. With RRIRLRPPRLPRPRPRPPRYPRP the “shrunken log2 fold change” value was 0.178. In the case of RRIRCRPPRLPRPRPRPWLTPRP, the “shrunken log2 fold change” value is reported as -0.117. For RRIRQRPPRLPRPRPRPNCSPRP, the “shrunken log2 fold change” value was -0.0334. In the case of RRIRIRPPRLPRPRPRPWFWPRP, the “shrunken log2 fold change” value is reported as -0.313. For RRIRGRPPRLPRPRPRPRDAPRP, the “shrunken log2 fold change” value was 1.21. For RRIRPRPPRLPRPRPRPHLSPRP, the “shrunken log2 fold change” value was -0.142. In the case of RRIRGRPPRLPRPRPRPKMHPRP, the “shrunken log2 fold change” value is reported as 0.769. RRIRLRPPRLPRPRPRPYVHPRP was tested, and the “shrunken log2 fold change” value was -0.783. For RRIRGRPPRLPRPRPRPVWVPRP, the “shrunken log2 fold change” value was 0.509. In the case of RRIRRRPPRLPRPRPRPRFVPRP, the “shrunken log2 fold change” value is reported as 0.375. With RRIRVRPPRLPRPRPRPICIPRP the “shrunken log2 fold change” value was -0.449. For RRIRRRPPRLPRPRPRPHAKPRP, the “shrunken log2 fold change” value was 0.0278. With RRIRRRPPRLPRPRPRPMDWPRP the “shrunken log2 fold change” value was 0.516. With RRIRIRPPRLPRPRPRPSVNPRP the “shrunken log2 fold change” value was -0.225. With RRIRHRPPRLPRPRPRPDIYPRP the “shrunken log2 fold change” value was 0.027. RRIRQRPPRLPRPRPRPTLTPRP was tested, and the “shrunken log2 fold change” value was 0.0596. For RRIRRRPPRLPRPRPRPPPFPRP, the “shrunken log2 fold change” value was 0.938. RRIRARPPRLPRPRPRPHHHPRP was tested, and the “shrunken log2 fold change” value was -0.469. In the case of RRIRWRPPRLPRPRPRPYVAPRP, the “shrunken log2 fold change” value is reported as -0.492. With RRIRLRPPRLPRPRPRPTFYPRP the “shrunken log2 fold change” value was -0.273. In the case of RRIRLRPPRLPRPRPRPQCGPRP, the “shrunken log2 fold change” value is reported as 0.0192. In the case of RRIRPRPPRLPRPRPRPVTYPRP, the “shrunken log2 fold change” value is reported as -0.0866. For RRIRVRPPRLPRPRPRPRKQPRP, the “shrunken log2 fold change” value was 0.383. For RRIRKRPPRLPRPRPRPYWYPRP, the “shrunken log2 fold change” value was -0.667. With RRIRRRPPRLPRPRPRPENAPRP the “shrunken log2 fold change” value was 0.115. RRIRHRPPRLPRPRPRPLDKPRP was tested, and the “shrunken log2 fold change” value was -0.0374.
